According to the supplement of paper PMC9732359:
± gives the uncertainty stated by the source.

Assay: protein stability index of a GFP-peptide fusion (yeast GPS) (PSI 1-4); higher = more stable; sorted into four equal gates, so the index is relative within each strain
How it was run: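 Mid-log yeast cultures in leucine-free medium, carrying a pooled plasmid library, were sorted into four equal gates by their GFP/Cherry fluorescence ratio. Each plasmid expressed Cherry along with GFP fused upstream of a tiled 17-residue yeast protein peptide. Plasmids recovered from each gate were PCR-amplified and Illumina-sequenced, with reads assigned to strains by barcodes. The protein stability index was obtained by summing each gate's read frequency weighted by its gate number.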

Sequence	protein stability index (doa10∆)	protein stability index (pdr5∆)	protein stability index (ubr1∆)	protein stability index (san1∆)
QLISAVLVSMGSSNKAV [YJL039C/NUP192]	1.47 ± 0.23	1.69 ± 0.14	1.23 ± 0.084	–
IPNQEVLQYSDWESDLH [YDL116W/NUP84]	2.1 ± 0.056	2 ± 0.056	2.18 ± 0.057	2.43 ± 0.043
IFRGSLIGCIPYSKNAV [YDL088C/ASM4]	2.18 ± 0.062	2.51 ± 0.09	2.19 ± 0.068	2.14 ± 0.13
DVDPEFYLKYVDIRVGK [RET1]	3.31 ± 0.28	2.79 ± 0.16	2.54 ± 0.1	2.4 ± 0.14
LLIIRSLKNTDALLNST [YJL039C/NUP192]	2.97 ± 0.086	3 ± 0.096	2.45 ± 0.15	2.37 ± 0.14
GSRKVAGILRGYDIFLN [SMX2]	2.5 ± 0.11	1.67 ± 0.08	1.98 ± 0.099	1.83 ± 0.15
SSKKVFSSNLSYANHLE [YOR098C/NUP1]	2.31 ± 0.067	2.31 ± 0.064	2.48 ± 0.047	2.1 ± 0.078
PIPSKPTLFDLAFNYIT [SRP68]	1.64 ± 0.051	1.54 ± 0.046	2.02 ± 0.046	1.74 ± 0.071
AKKKVLDVTKEAQANLL [RPO21]	2.41 ± 0.17	2.73 ± 0.11	2.84 ± 0.14	–
VQVKVLGKYEFSKILPA [ESC2]	2.03 ± 0.15	1.99 ± 0.14	1.83 ± 0.19	–
PLVLLQQIPLLCYMAPM [POP3]	1.72 ± 0.053	1.59 ± 0.061	1.92 ± 0.054	1.85 ± 0.074
EPGHAADQEQAKLIRSA [RPO21]	3.2 ± 0.2	3.24 ± 0.2	3.12 ± 0.1	2.69 ± 0.19
PLITRHCYPRQLCQITC [RRP46]	1.89 ± 0.054	2.02 ± 0.049	2.11 ± 0.044	1.92 ± 0.095
TAFQTQRTAQDRVQQDS [YML031W/NDC1]	2.94 ± 0.086	2.62 ± 0.075	2.35 ± 0.079	3.26 ± 0.076
VMYGTAYKFEEVSKDLI [RPB8]	2.9 ± 0.062	3.18 ± 0.061	3.09 ± 0.051	3.34 ± 0.044
AGIKTRKFVFNPPKPRK [CYT1]	3.06 ± 0.06	3.19 ± 0.074	3.07 ± 0.063	3.03 ± 0.06
PTPSVKTEPVGTGLQSY [RPC53]	3.4 ± 0.25	3.23 ± 0.13	3.25 ± 0.11	3.16 ± 0.1
LAVEDKPSPIDSGIGSN [CSL4]	3.02 ± 0.069	3.27 ± 0.062	3.08 ± 0.044	3.06 ± 0.052
VSITDAPKIHILDPSTE [YMR129W/POM152]	1.56 ± 0.055	1.95 ± 0.056	1.54 ± 0.061	1.53 ± 0.061
ISLRNNHKIIARVKAFD [SMD2]	1.79 ± 0.044	2.02 ± 0.038	2 ± 0.041	2.49 ± 0.051
NHDRINISNNLQKALTV [RPN8]	3.17 ± 0.064	3.29 ± 0.062	3.27 ± 0.046	3.38 ± 0.038
SLLLSSVKESTGMSSMS [SRB4]	1.96 ± 0.081	2.21 ± 0.078	1.22 ± 0.13	1.57 ± 0.21
TEIISTLSNGLIASHYG [BRR2]	2.55 ± 0.076	2.79 ± 0.096	2.33 ± 0.062	2.42 ± 0.1
PSHEKLKESYSQKHNGR [CDC53]	3.23 ± 0.13	3.13 ± 0.071	3.04 ± 0.08	2.94 ± 0.047
SVPEGTIVSNVEEKPGD [RPL2A]	3.23 ± 0.1	3.02 ± 0.082	3.39 ± 0.11	3.39 ± 0.059

Sequence	protein stability index (doa10∆)	protein stability index (pdr5∆)	protein stability index (ubr1∆)	protein stability index (san1∆)
DWEDEEKYEDEDEEKIL [DSN1]	3.28 ± 0.11	2.94 ± 0.16	3.25 ± 0.15	3.26 ± 0.24
KLKNNASRSQLEKGEIE [YJL039C/NUP192]	3.18 ± 0.11	2.98 ± 0.1	3.08 ± 0.087	2.66 ± 0.083
SRTLILSILNEIKKVTQ [SIN4]	3.05 ± 0.12	2.56 ± 0.15	2.82 ± 0.084	2.27 ± 0.11
KKVNYKVTSYDITGDIR [ISW2]	2.72 ± 0.058	2.51 ± 0.055	2.67 ± 0.051	2.83 ± 0.068
IIEKITDQILQLLKEDS [RRP45]	2.35 ± 0.11	2.5 ± 0.11	2.37 ± 0.13	2.26 ± 0.14
AALIASKVYYNLGEYES [RPN2]	1.88 ± 0.077	1.6 ± 0.066	1.69 ± 0.051	1.33 ± 0.067
EQQPEQPQETEEHHEEE [RPT4]	3.41 ± 0.084	3.28 ± 0.12	3.44 ± 0.1	3.2 ± 0.12
ENSFYKKEASKTKWDRK [POP1]	2.25 ± 0.063	2.37 ± 0.063	2.22 ± 0.048	2.3 ± 0.068
LRRLEILVPDLYHLVIM [ECM29]	1.59 ± 0.054	1.54 ± 0.036	1.61 ± 0.032	1.46 ± 0.065
QLEEDENITNKVTEKVL [CSI1]	3.2 ± 0.088	3.2 ± 0.09	3.13 ± 0.055	3.33 ± 0.057
LERVKANAAKRAEAKAQ [RPL21A]	3.14 ± 0.097	3.25 ± 0.12	3.14 ± 0.11	3.36 ± 0.061
MYPSPTGVMIGIDLAYN [PRP8]	2.11 ± 0.074	2.1 ± 0.07	2.07 ± 0.048	1.97 ± 0.081
KGIAKEHAKWGPAAAIE [RPB3]	3.11 ± 0.12	3.32 ± 0.1	2.9 ± 0.055	3.06 ± 0.13
LWKLLSTVKVSDLNLTD [YLR018C/POM34]	2.35 ± 0.065	2.26 ± 0.044	2.52 ± 0.039	2.3 ± 0.06
FRFDSIQRETLLPTNNG [GRR1]	2.59 ± 0.047	2.67 ± 0.053	2.92 ± 0.033	2.69 ± 0.04
RPNRRGPRNTEEKGWVP [RPS2]	3.42 ± 0.15	3.49 ± 0.13	3.66 ± 0.079	3.68 ± 0.12
RSLLQEAIETCKNFEKT [GAL11]	–	3.14 ± 0.15	3.09 ± 0.081	2.59 ± 0.19
SQFCYVSDDESNGEVLE [RPN14]	3.41 ± 0.22	–	3.09 ± 0.1	–
IRGSDQAIPKFQMNCYA [RPN2]	1.27 ± 0.085	1.62 ± 0.066	1.47 ± 0.11	1.55 ± 0.13
DFKAKYCDSMGRPQRKM [RPB5]	3.44 ± 0.24	3.18 ± 0.15	3.32 ± 0.1	3.22 ± 0.17
EFIAHRLGLIPLQSMDI [RPB3]	2.69 ± 0.13	2.04 ± 0.17	–	1.92 ± 0.23
LDYQETYVEELFPIVKK [YJL039C/NUP192]	2.81 ± 0.071	3.07 ± 0.1	2.75 ± 0.062	2.87 ± 0.1
ACSSSGRETILSNFNAD [SIR3]	2.39 ± 0.037	2.16 ± 0.04	2.75 ± 0.042	2.44 ± 0.045
FRKIKLRVDEVQGKNLL [RPS1A]	2.96 ± 0.12	3.48 ± 0.12	3.36 ± 0.065	2.93 ± 0.13
PKCHSRENVFFQSQQRR [RPB9]	3.14 ± 0.088	2.65 ± 0.081	2.65 ± 0.054	2.22 ± 0.089

Sequence	protein stability index (doa10∆)	protein stability index (pdr5∆)	protein stability index (ubr1∆)	protein stability index (san1∆)
GLSKEDDVRDFVIRREV [RPS6A]	3.42 ± 0.094	3.42 ± 0.081	3.68 ± 0.15	3.13 ± 0.13
NDLHHSEKKYAEEDQVQ [RPN3]	2.85 ± 0.1	3.3 ± 0.16	2.98 ± 0.21	2.99 ± 0.13
QQQIESNEEQRNLDSAT [SMC3]	–	–	–	3.43 ± 0.091
QREAAAEYAQLLAKRLS [RPS6A]	1.78 ± 0.059	1.6 ± 0.055	2.11 ± 0.046	1.7 ± 0.11
QLHFSLLDEEAEQSFDQ [RPO21]	2.51 ± 0.11	2.77 ± 0.14	2.64 ± 0.22	3.29 ± 0.1
RKFERARGRRRSKGFKV [RPL18A]	3.28 ± 0.1	3.24 ± 0.094	3.15 ± 0.059	3.54 ± 0.12
PPTTSNLIIFLYKFNGW [YML103C/NUP188]	1.76 ± 0.046	2.26 ± 0.045	2.53 ± 0.051	2.32 ± 0.058
NYQYKIQELRKLLKSLL [MED7]	1.43 ± 0.07	1.88 ± 0.095	1.81 ± 0.072	2.28 ± 0.22
IETLDPALIRPGRIDRK [RPT2]	2.53 ± 0.26	3.18 ± 0.19	3.02 ± 0.2	2.88 ± 0.24
TLLESNLCKIIEPFECV [RPN6]	2.26 ± 0.085	2.81 ± 0.12	2.88 ± 0.16	2.28 ± 0.12
IKWENAFVSVYSKNNPN [PRP8]	2.11 ± 0.057	2.77 ± 0.05	2.61 ± 0.031	3.07 ± 0.053
PSFTFGGSTTNNTTTTS [YOR098C/NUP1]	3.04 ± 0.099	3.19 ± 0.091	3.36 ± 0.073	3.08 ± 0.056
KKIVDDTIMENPEPNKK [IRR1]	2.14 ± 0.071	2.81 ± 0.054	2.59 ± 0.078	2.53 ± 0.084
LGLCCLLDVKLAIDNMY [YCG1]	1.52 ± 0.045	1.51 ± 0.04	1.88 ± 0.044	1.78 ± 0.067
GSENKRGSLDSEHVFDY [NUT1]	3.37 ± 0.14	3.29 ± 0.11	3.57 ± 0.05	3.32 ± 0.2
GVWDVDNPLRQIPHFNN [BRR2]	3.26 ± 0.077	3.24 ± 0.083	3.13 ± 0.07	3.26 ± 0.065
ATEPQMVLFNIYDDWLD [PRP8]	2.28 ± 0.051	2.15 ± 0.047	2.18 ± 0.044	1.6 ± 0.09
CYLRWQHLRNEHGMNAP [SNF2]	3.15 ± 0.072	3.33 ± 0.1	2.9 ± 0.066	3.4 ± 0.087
SYAGKQVVGPFHTSFSA [SMC4]	2.7 ± 0.078	3.33 ± 0.11	3.13 ± 0.049	3.08 ± 0.056
KNLIQLISLKLLTFEVT [SRB8]	1.28 ± 0.081	1.19 ± 0.054	1.1 ± 0.071	1.24 ± 0.13
RAGIIIAKLSVIPIRRG [RPS2]	2.21 ± 0.077	2.13 ± 0.047	2.25 ± 0.072	1.31 ± 0.13
EDHIFFKYIYELILAGA [YDL116W/NUP84]	1.74 ± 0.07	1.98 ± 0.064	1.66 ± 0.061	1.69 ± 0.089
KPGSKPEKTSTELVDGR [SIR3]	3.16 ± 0.13	2.86 ± 0.16	3.27 ± 0.14	3.26 ± 0.089
LNEAPFPEENIIDAKTR [MCD1]	3.12 ± 0.078	3.17 ± 0.052	3.27 ± 0.051	3.136 ± 0.031
SVILSVISMFVLPIFTT [YML031W/NDC1]	1.29 ± 0.045	1.5 ± 0.059	1.93 ± 0.043	1.3 ± 0.092
